Values quoted from earlier work in PMC8781899.
Read-outs that look alike come from different tables or passages of the source.

Experiments:
DR4 (Homo sapiens) [1] = target: DR4 (Homo sapiens) (UniProt O00220)
DR4 (Homo sapiens) [2] = target: DR4 (Homo sapiens) (UniProt O00220); remark: listed apart in the source

Chain of UniProt O00220 (O00220 24-468): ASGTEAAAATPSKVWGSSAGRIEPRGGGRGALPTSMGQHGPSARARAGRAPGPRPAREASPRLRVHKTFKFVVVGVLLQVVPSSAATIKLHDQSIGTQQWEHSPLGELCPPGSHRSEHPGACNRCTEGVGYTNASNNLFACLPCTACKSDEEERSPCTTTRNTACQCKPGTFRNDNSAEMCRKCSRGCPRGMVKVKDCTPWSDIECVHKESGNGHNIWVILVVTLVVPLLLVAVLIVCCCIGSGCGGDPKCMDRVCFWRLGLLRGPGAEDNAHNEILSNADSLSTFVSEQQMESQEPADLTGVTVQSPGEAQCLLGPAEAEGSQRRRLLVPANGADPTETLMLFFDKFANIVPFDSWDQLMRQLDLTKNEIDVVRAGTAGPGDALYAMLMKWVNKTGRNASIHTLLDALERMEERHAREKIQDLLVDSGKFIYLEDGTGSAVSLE
Chain of TRAIL (P50591 whole entry): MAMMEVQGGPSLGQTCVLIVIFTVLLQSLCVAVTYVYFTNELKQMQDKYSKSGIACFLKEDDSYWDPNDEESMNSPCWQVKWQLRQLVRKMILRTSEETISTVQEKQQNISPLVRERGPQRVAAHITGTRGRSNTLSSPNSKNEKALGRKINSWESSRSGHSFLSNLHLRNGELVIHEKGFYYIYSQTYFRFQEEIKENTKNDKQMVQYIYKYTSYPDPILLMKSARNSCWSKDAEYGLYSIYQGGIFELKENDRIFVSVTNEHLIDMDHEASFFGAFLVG

Row | Substance | Kd (DR4 (Homo sapiens) [1]) [nM] | Kd (DR4 (Homo sapiens) [2]) [nM]
1 | TRAIL (from UniProt P50591) | 0.17 | 
2 | TRAIL D269H/E195R (DHER) (from UniProt P50591) |  | 2.9
